Source: publication PMC9186069

Tests used:
[1] = target: serum C1r (human (endogenous in normal human serum))
[2] = target: FbpA-C (Borrelia miyamotoi strain FR64b) (UniProt W5SFZ1); test: SPR; FbpA-C, FbpB-C or FbpA DA-C immobilised by amine coupling; C1r-CCP2-SP injected, twofold dilution series 0-100 nM, multi-cycle; Biacore T200, 25°C, 30 μL/min; kinetic fits
[3] = target: MBP-FbpA-N (Borrelia miyamotoi strain FR64b); test: SPR; MBP-Fbp-N fusion proteins immobilised by amine coupling on CMD200 chips; human plasma fibronectin injected, twofold dilution series up to 500 nM, multi-cycle; Biacore T200, 25°C, 30 μL/min, HBS-T; steady-state affinity fits

FbpA-C (from UniProt W5SFZ1 222-371) (domain or fragment)
IC50 of inhibition of classical pathway complement activation (ELISA-based assay, C4b deposition, normal human serum) [1]: 23 nM | IC50 of inhibition of classical pathway hemolysis (pre-sensitized sheep erythrocytes, 2% normal human serum) [1]: 220 nM

C1r-CCP2-SP (domain or fragment)
Kd [2]: 0.9 nM | koff [2]: 0.00031 s⁻¹ | kon [2]: 330000 M⁻¹ s⁻¹

human fibronectin (from UniProt P02751) (natural protein)
Kd [3]: 170 nM

FbpB-C (from UniProt A0A0U2RP97 264-432) (domain or fragment)
IC50 of inhibition of classical pathway complement activation (ELISA-based assay, C4b deposition, normal human serum) [1]: 1900 nM
